{
  "source": "paper PMC7935953",
  "about": "“Insights on autophagosome–lysosome tethering from structural and biochemical characterization of human autophagy factor EPG5” (Communications Biology, 2021)",
  "molecules": {"B1": {"name": "hEPG5^Δ1–1198: hEPG5 truncation mutant which excludes the entire N-terminal region (protein)", "chain": "YHCDRSLLSSLVSWIVAGNITPSFVEGLATPTQVWFAWTVLNMESIFEEDSQLRRVIEGELVINSAFTPDQALKKAQTQLKLPIVPSLQRLLIYRWAHQALVTPSDHPLLPLIWQKFFLLYLHRPGPQYGLPIDGCIGRRFFQSPAHINLLKEMKRRLTEVADFHHAASKALRVPAEGSEGLPESHSGTPGYLTSPELHKELVRLFNVYILWLEDENFQKGDTYIPSLPKHYDIHRLAKVMQNQQDLWMEYLNMERIYHEFQETVGLWTQAKLESHSTPCSLSVQLDFTDPLLAKERVLSNLRKHEAPQPPLALHPTKPPVPVISSAVLLSQKDATQLVCTDLNLLQQQARTAALRESQQVALDGELLDTMPKQYVNREEQTTLHLECRGSSGKKCQGAAVVTVQFEGMHKNEAISQQLHVLRKEVKQLQAEAAKPPSLNIVEAAVHAENLITALVNAYKLQPTPGIQKVGISLFFTIVDYVSDETQRHPPTRQFFTSCIEILGQVFISGIKSECRKVLETILKNSRLCSLLSPFFTPNAAPAEFIQLYEQVVKFLSEDNSDMIFMLLTKFDLKQWLSATKPPLSDRTRLLESIHLALTAWGLEPDEDILMPFNLFCKHWTYLLLYQFPDQYSDILRLLMQSSAEQLLSPECWKATLRALGCCAPSCQQGAASTEGAVLPSSSDALLSDKQVMETIQWLSDFFYKLRLSKMDFKSFGLFSKWSPYMADVKTFLGYLVKRLIDLEMTCLAQDPTASRKTVLKSLHSVIIQLFKPWILVLEDNESSQQRHYPWLESDTVVASSIVQLFTDCIDSLHESFKDKLLPGDAGALWLHLMHYCEACTAPKMPEFILYAFHSTYRKLPWKDLHPDQMLMEAFFKVERGSPKSCFLFLGSVLCEVNWVSVLSDAWNSSPHPETRSMIVCLLFMMILLAKEVQLVDQTDSPLLSLLGQTSSLSWHLVDIVSYQSVLSYFSSHYPPSIILAKESYAELIMKLLKVSAGLSIPTDSQKHLDAVPKCQAFTHQMVQFLSTLEQNGKITLAVLEQEMSKLLDDIIVFNPPDMDSQTRHMALSSLFMEVLMMMNNATIPTAEFLRGSIRTWIGQKMHGLVVLPLLTAACQSLASVRHMAETTEACITAYFKESPLNQNSGWGPILVSLQVPELTMEEFLQECLTLGSYLTLYVYLLQCLNSEQTLRNEMKVLLILSKWLEQVYPSSVEEEAKLFLWWHQVLQLSLIQTEQNDSVLTESVIRILLLVQSRQNLVAEERLSSGILGAIGFGRKSPLSNRFRVVARSMAAFLSVQVPMEDQIRLRPGSELHLTPKAQQALNALESMASSKQYVEYQDQILQATQFIRHPGHCLQDGKSFLALLVNCLYPEVHYLDHIR", "modifications": "left off: His, end not stated, kept | FLAG, end not stated, kept", "notes": "hEPG5 truncation mutant which excludes the entire N-terminal region"}},
  "target": "T1, GABARAP (Homo sapiens, UniProt O95166)",
  "T1 construct": "made in house; host or cells: E. coli (T7 Express)",
  "T1 sequence (O95166 whole entry)": "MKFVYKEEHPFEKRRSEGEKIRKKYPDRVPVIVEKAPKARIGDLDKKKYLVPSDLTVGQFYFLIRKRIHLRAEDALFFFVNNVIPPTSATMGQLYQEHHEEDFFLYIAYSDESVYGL",
  "test": "GST pull-down of hEPG5 (wild type and mutants) with GST-GABARAP bait",
  "format": "binding",
  "details": "anti-FLAG western blot, compared to wild-type hEPG5, triplicates",
  "procedure": "For GST pull-down analysis, N-terminally GST-tagged LC3 and GABARAP proteins were expressed in Escherichia coli (T7 Express) cells. The cells were induced with 1 mM isopropyl β-d-1-thiogalacpyranoside [IPTG] for 4 h at 25 °C. The cell pellets were resuspended in 25 mL buffer E (50 mM Tris pH 8.0, 150 mM NaCl, and 1 mM PMSF). Cells were then sonicated for four cycles consisting of 1 min sonication followed by 2 min cooling on ice, with duty cycle set to 50% and output control at 5. Cell lysate was then centrifuged at 20,950 × g for 40 min at 4 °C. Supernatant was incubated for 1 h at 4 °C with glutathione resin (50% slurry, GenScript) pre-equilibrated with buffer E, while gently inverting. Resin was returned to the column and washed with buffer E. Proteins were eluted with 10 mM reduced glutathione (GoldBio) in buffer F (50 mM Tris pH 8.0, 150 mM NaCl). Free glutathione was removed by dialysis in buffer F and protein concentration was measured by spectrophotometry (NanoDrop, Thermo Scientific). Glycerol was added to a final concentration of 5%, then solutions were aliquoted and stored at −70 °C.\nPulldowns were performed with a 50 µL slurry of glutathione resin (50% slurry, GenScript). […]\nAll experiments were performed in triplicates. […] Intensity of His-FLAG-hEPG5, GST (control), and GST-LC3/GABARAP subfamily proteins in pull-down assays was quantified using Bio-Rad Image Lab Software v6.0. […]",
  "data": [
    {"molecule": "B1", "values": [
      {"measurement": "binding to GABARAP in GST pull-down, in words", "value": "but not hEPG5^Δ1–1198 was pulled down by GABARAP"}
    ]}
  ]
}
